# Experimental data taken from IntAct's records for PubMed 10413501.
# B1: Ribonuclease inhibitor (Homo sapiens), P13489 (parent)
# chain: MSLDIQSLDIQCEELSDARWAELLPLLQQCQVVRLDDCGLTEARCKDISSALRVNPALAELNLRSNELGDVGVHCVLQGLQTPSCKIQKLSLQNCCLTGAGCGVLSSTLRTLPTLQELHLSDNLLGDAGLQLLCEGLLDPQCRLEKLQLEYCSLSAASCEPLASVLRAKPDFKELTVSNNDINEAGVRVLCQGLKDSPCQLEALKLESCGVTSDNCRDLCGIVASKASLRELALGSNKLGDVGMAELCPGLLHPSSRLRTLWIWECGITAKGCGDLCRVLRAKESLKELSLAGNELGDEGARLLCETLLEPGCQLESLWVKSCSFTAACCSHFSSVLAQNRFLLELQISNNRLEDAGVRELCQGLGQPGSVLRVLWLADCDVSDSSCSSLAATLLANHSLRELDLSNNCLGDAGILQLVESVRQPGCLLEQLVLYDIYWSEEMEDRLQALEKDKPSLRVIS
# Variants of: B1
# Settings: with rnas1_bovin RNASE1, P61823
# Sequence of rnas1_bovin RNASE1, P61823 (P61823 whole entry): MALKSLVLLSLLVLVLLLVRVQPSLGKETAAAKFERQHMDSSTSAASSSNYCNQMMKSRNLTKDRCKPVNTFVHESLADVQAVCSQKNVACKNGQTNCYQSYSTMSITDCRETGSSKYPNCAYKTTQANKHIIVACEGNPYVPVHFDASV
row,Variant,effect of a mutation on the interaction
1,Y438F,decreasing interaction

# Variants of: B1
# Settings: with rnas1_bovin RNASE1, P61823
# Remark: another data set of the same source
row,Variant,effect of a mutation on the interaction
1,Y435F,decreasing interaction
